Experimental data published in paper PMC11615228, “3D variability analysis reveals a hidden conformational change controlling ammonia transport in human asparagine synthetase” (Nature Communications, 2024).

Target: the molecule itself
Assay: cryo-EM structure; single-particle cryo-EM of the purified enzyme without ligands; 25 mM Tris-HCl pH 8.0, 200 mM NaCl, 5 mM DTT; WT at 9.0 mg/mL, R142I at 3.2 mg/mL; grids made at 4 °C; C2 symmetry imposed

| Protein | stoichiometry N |
| --- | --- |
| wild-type (WT) human asparagine synthetase (ASNS) (enzyme, UniProt P08243 1-561, looked up, human asparagine synthetase (glutamine-hydrolysing), unmodified recombinant enzyme; the N-terminal residue is Cys-1 (initiator Met removed) and the C-terminal tail ends at residue 560; Cys-1 is C2 in P08243); No tag is stated for the WT enzyme; the variants were purified on Ni-NTA, so the WT construct may also carry a His tag; Residues 201-220, 465-475 and 539-560 have no density in the EM map …) MCGIWALFGSDDCLSVQCLSAMKIAHRGPDAFRFENVNGYTNCCFGFHRLAVVDPLFGMQPIRVKKYPYLWLCYNGEIYNHKKMQQHFEFEYQTKVDGEIILHLYDKGGIEQTICMLDGVFAFVLLDTANKKVFLGRDTYGVRPLFKAMTEDGFLAVCSEAKGLVTLKHSATPFLKVEPFLPGHYEVLDLKPNGKVASVEMVKYHHCRDVPLHALYDNVEKLFPGFEIETVKNNLRILFNNAVKKRLMTDRRIGCLLSGGLDSSLVAATLLKQLKEAQVQYPLQTFAIGMEDSPDLLAARKVADHIGSEHYEVLFNSEEGIQALDEVIFSLETYDITTVRASVGMYLISKYIRKNTDSVVIFSGEGSDELTQGYIYFHKAPSPEKAEEESERLLRELYLFDVLRADRTTAAHGLELRVPFLDHRFSSYYLSLPPEMRIPKNGIEKHLLRETFEDSNLIPKEILWRPKEAFSDGITSVKNSWFKILQEYVEHQVDDAMMANAAQKFPFNTPKTKEGYYYRQVFERHYPGRADWLSHYWMPKWINATDPSARTLTHYKSAVKA | 2 |
| R142I ASNS variant (human asparagine synthetase with Arg-142 replaced by isoleucine) (enzyme, UniProt P08243 1-561, looked up, human asparagine synthetase with R142I; only elution from Ni-NTA with imidazole is described; also called R142I variant; ASNS R142I; source: Sf9 cells (baculovirus), purified (Ni-NTA, PD-10 buffer exchange)) MCGIWALFGSDDCLSVQCLSAMKIAHRGPDAFRFENVNGYTNCCFGFHRLAVVDPLFGMQPIRVKKYPYLWLCYNGEIYNHKKMQQHFEFEYQTKVDGEIILHLYDKGGIEQTICMLDGVFAFVLLDTANKKVFLGRDTYGVIPLFKAMTEDGFLAVCSEAKGLVTLKHSATPFLKVEPFLPGHYEVLDLKPNGKVASVEMVKYHHCRDVPLHALYDNVEKLFPGFEIETVKNNLRILFNNAVKKRLMTDRRIGCLLSGGLDSSLVAATLLKQLKEAQVQYPLQTFAIGMEDSPDLLAARKVADHIGSEHYEVLFNSEEGIQALDEVIFSLETYDITTVRASVGMYLISKYIRKNTDSVVIFSGEGSDELTQGYIYFHKAPSPEKAEEESERLLRELYLFDVLRADRTTAAHGLELRVPFLDHRFSSYYLSLPPEMRIPKNGIEKHLLRETFEDSNLIPKEILWRPKEAFSDGITSVKNSWFKILQEYVEHQVDDAMMANAAQKFPFNTPKTKEGYYYRQVFERHYPGRADWLSHYWMPKWINATDPSARTLTHYKSAVKA | 2 |
